Source: article PMC10089224 (2023)
Bridges are numbered along the chain shown (N, C = ends). Where no end group is shown, it is not given here. [ ]: non-standard residue; d: D form.

Experiments:
CPI1 [1] = target: T1, CPI1 (synthetic construct, thioether N-17); test: ATPase activity inhibition assay (NADH-coupled), no LTC4
T1 chain: {CH2CO}-[dY]FWGNLHWYYEQFDSTC

CPI1 [2] = target: T2, CPI1 (synthetic construct, thioether N-17); test: ATPase activity inhibition assay (NADH-coupled), with 3.5 µM LTC4
T2 chain: {CH2CO}-[dY]FWGNLHWYYEQFDSTC

Ki (CPI1 [1]): 70 nM
Ki (CPI1 [2]): 95 nM
B1: MRP1 (bMRP1) (protein)
chain: MALRDFCSVDGSDLFWEWNVTWNTSNPDFTKCFQNTVLVWVPCSYLWVCFPFYFLYLSHHDRGYIQMTHLNKAKTALGFLLWIVCWADLFYSFWERSMGKLLAPVFLVSPTLLGITMLLATFLIQIERRRGVQSSGIMLTFWLIALLCALAILRSKIMTALKEDARVDVFRDVTFYIYFSLVLIQLVLSCFSDRSPLFSETINDPNPCPESSASFLSRITFWWITGMMVQGYRQPLESTDLWSLNKEDTSEQVVPVLVKNWKKECAKSRKQPVKIVYSSKDPAKPKGSSKVDVNEEAEALIVKCPQKERDPSLFKVLYKTFGPYFLMSFLFKAVHDLMMFAGPEILKLLINFVNDKKAPEWQGYFYTALLFISACLQTLVLHQYFHICFVSGMRIKTAVIGAVYRKALVITNAARKSSTVGEIVNLMSVDAQRFMDLATYINMIWSAPLQVILALYLLWLNLGPSVLAGVAVMVLMVPLNAVMAMKTKTYQVAHMKSKDNRIKLMNEILNGIKVLKLYAWELAFKDKVLAIRQEELKVLKKSAYLAAVGTFTWVCTPFLVALSTFAVYVTVDENNILDAQKAFVSLALFNILRFPLNILPMVISSIVQASVSLKRLRVFLSHEDLDPDSIQRRPIKDAGATNSITVKNATFTWARNDPPTLHGITFSVPEGSLVAVVGQVGCGKSSLLSALLAEMDKVEGHVTVKGSVAYVPQQAWIQNISLRENILFGRQLQERYYKAVVEACALLPDLEILPSGDRTEIGEKGVNLSGGQKQRVSLARAVYCDSDVYLLDDPLSAVDAHVGKHIFENVIGPKGLLKNKTRLLVTHAISYLPQMDVIIVMSGGKISEMGSYQELLARDGAFAEFLRTYASAEQEQGQPEDGLAGVGGPGKEVKQMENGMLVTDTAGKQMQRQLSSSSSYSRDVSQHHTSTAELRKPGPTEETWKLVEADKAQTGQVKLSVYWDYMKAIGLFISFLSIFLFLCNHVASLVSNYWLSLWTDDPIVNGTQEHTQVRLSVYGALGISQGITVFGYSMAVSIGGIFASRRLHLDLLHNVLRSPISFFERTPSGNLVNRFSKELDTVDSMIPQVIKMFMGSLFNVIGACIIILLATPMAAVIIPPLGLIYFFVQRFYVASSRQLKRLESVSRSPVYSHFNETLLGVSVIRAFEEQERFIRQSDLKVDENQKAYYPSIVANRWLAVRLECVGNCIVLFASLFAVISRHSLSAGLVGLSVSYSLQVTTYLNWLVRMSSEMETNIVAVERLKEYSETEKEAPWQIQDMAPPKDWPQVGRVEFRDYGLRYREDLDLVLKHINVTIDGGEKVGIVGRTGAGKSSLTLGLFRIKESAEGEIIIDDINIAKIGLHDLRFKITIIPQDPVLFSGSLRMNLDPFSQYSDEEVWTSLELAHLKGFVSALPDKLNHECAEGGENLSVGQRQLVCLARALLRKTKILVLDEATAAVDLETDDLIQSTIRTQFDDCTVLTIAHRLNTIMDYTRVIVLDKGEIQEWGSPSDLLQQRGLFYSMAKDSGLV
